Tests used:
[1] = molecular target: rice P5C dehydrogenase, truncated version lacking the predicted mitochondrial transit peptide (Oryza sativa (rice)); assay: SEC; gel permeation on Superose 12 HR 10/30; 100 uL of purified protein at 0.5 mg/mL; 50 mM Tris-HCl pH 7.75, 250 mM NaCl (same pattern from 250 mM to 1 M NaCl); column calibrated with mass markers; six runs
[2] = molecular target: T1, rice P5C dehydrogenase (OsP5CDH) (Oryza sativa, UniProt B9FLB9); assay: NAD(P)H absorbance at […] nm, non-linear regression; format: biochemical
T1 construct: gene Os05g0536400; mature form lacking the 16-residue predicted mitochondrial transit peptide; N-terminal His6 tag (pET151, TEV-cleavable; tag without effect); E. coli BL21(DE3) pLysS; monomer 57,670 Da; homotetramer 259 kDa
T1 sequence (B9FLB9 17-550): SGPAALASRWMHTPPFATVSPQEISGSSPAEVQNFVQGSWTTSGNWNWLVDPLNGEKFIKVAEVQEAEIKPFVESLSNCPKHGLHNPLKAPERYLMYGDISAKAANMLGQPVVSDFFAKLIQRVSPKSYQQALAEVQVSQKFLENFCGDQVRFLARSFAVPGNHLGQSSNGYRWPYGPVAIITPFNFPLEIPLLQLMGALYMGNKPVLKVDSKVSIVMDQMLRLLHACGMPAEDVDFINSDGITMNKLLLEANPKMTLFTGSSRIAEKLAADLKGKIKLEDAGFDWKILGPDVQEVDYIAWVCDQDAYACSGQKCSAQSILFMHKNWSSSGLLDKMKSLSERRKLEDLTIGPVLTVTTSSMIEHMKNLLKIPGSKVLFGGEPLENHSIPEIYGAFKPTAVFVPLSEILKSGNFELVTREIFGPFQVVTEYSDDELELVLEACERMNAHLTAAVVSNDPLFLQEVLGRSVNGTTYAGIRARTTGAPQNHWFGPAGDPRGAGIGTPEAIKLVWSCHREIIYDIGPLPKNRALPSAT

[3] = molecular target: T1, rice P5C dehydrogenase (OsP5CDH); assay: NAD(P)H absorbance at […] nm, kinetic analysis; format: biochemical
purified protein [4] = substrate: NC(=O)c1ccc[n+]([C@@H]2O[C@H](COP(=O)(O)OP(=O)(O)OC[C@H]3O[C@@H](n4cnc5c(N)ncnc54)[C@H](O)[C@@H]3O)[C@@H](O)[C@H]2O)c1; assay: purified protein; format: biochemical, Oryza sativa; details: 1 mM L-P5C, 50 mM Hepes-KOH pH 7.5, 35 °C, varied: cofactor
purified protein [5] = substrate: O=C(O)[C@@H]1CCC=N1; assay: purified protein; format: biochemical, Oryza sativa; details: 10 mM NAD+ co-substrate, 50 mM Hepes-KOH pH 7.5, 35 °C
purified protein [6] = substrate: NC(=O)c1ccc[n+]([C@@H]2O[C@H](COP(=O)(O)OP(=O)(O)OC[C@H]3O[C@@H](n4cnc5c(N)ncnc54)[C@H](OP(=O)(O)O)[C@@H]3O)[C@@H](O)[C@H]2O)c1; assay: purified protein; format: biochemical, Oryza sativa; details: 1 mM L-P5C, 50 mM Hepes-KOH pH 7.5, 35 °C, varied: cofactor

rice P5C dehydrogenase, truncated version lacking the predicted mitochondrial transit peptide (enzyme)
stoichiometry N [1]: 4

N=C(N)NCCC[C@H](N)C(=O)O [arginine]
IC50 [2]: 87 ± 11 mM | Ki [3]: 62.3 ± 2.4 mM

B1: rice P5C dehydrogenase (OsP5CDH) (Oryza sativa Japonica Group) (protein)
chain: SGPAALASRWMHTPPFATVSPQEISGSSPAEVQNFVQGSWTTSGNWNWLVDPLNGEKFIKVAEVQEAEIKPFVESLSNCPKHGLHNPLKAPERYLMYGDISAKAANMLGQPVVSDFFAKLIQRVSPKSYQQALAEVQVSQKFLENFCGDQVRFLARSFAVPGNHLGQSSNGYRWPYGPVAIITPFNFPLEIPLLQLMGALYMGNKPVLKVDSKVSIVMDQMLRLLHACGMPAEDVDFINSDGITMNKLLLEANPKMTLFTGSSRIAEKLAADLKGKIKLEDAGFDWKILGPDVQEVDYIAWVCDQDAYACSGQKCSAQSILFMHKNWSSSGLLDKMKSLSERRKLEDLTIGPVLTVTTSSMIEHMKNLLKIPGSKVLFGGEPLENHSIPEIYGAFKPTAVFVPLSEILKSGNFELVTREIFGPFQVVTEYSDDELELVLEACERMNAHLTAAVVSNDPLFLQEVLGRSVNGTTYAGIRARTTGAPQNHWFGPAGDPRGAGIGTPEAIKLVWSCHREIIYDIGPLPKNRALPSAT
notes: mature form lacking the 16-residue predicted mitochondrial transit peptide; N-terminal His6 tag (pET151, TEV-cleavable; tag without effect); E. coli BL21(DE3) pLysS; monomer 57,670 Da; homotetramer 259 kDa
Km (purified protein [4]): 644 ± 30 µM | Vmax (purified protein [4]): 196.9 ± 2.1 nkat (mg protein)^−1 | kcat (purified protein [4]): 12 s⁻¹ | Km (purified protein [5]): 358 ± 14 µM | Km (purified protein [6]): 4695 ± 462 µM | Vmax (purified protein [6]): 49.2 ± 1.7 nkat (mg protein)^−1 | kcat (purified protein [6]): 3 s⁻¹
